PMC2490753

Target: YacG (E. coli) (UniProt P0A8H8)
Assay: SPR

Sequence of UniProt P0A8H8 (P0A8H8 whole entry): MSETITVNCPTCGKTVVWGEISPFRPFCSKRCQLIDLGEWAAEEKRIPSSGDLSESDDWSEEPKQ

GyrB subunit of E. coli DNA gyrase (from UniProt P0AES6 1-804) (natural protein)
response above nonspecific control at 1 uM GyrB: 92 RU
